Data as given in patent US20190225690A1 (CROWN BIOSCIENCE TAICANG, published 2019).
Where two headings read alike, the source gives them in different places.

T1: human CTLA4 (construct not stated) (human, UniProt P16410 36-161, limits assumed)
T1 sequence (looked up): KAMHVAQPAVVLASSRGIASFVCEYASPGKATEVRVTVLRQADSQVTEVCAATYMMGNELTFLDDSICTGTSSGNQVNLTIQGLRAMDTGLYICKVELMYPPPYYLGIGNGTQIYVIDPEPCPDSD

T2: human CTLA4 on hCTLA4-293T cells (human, UniProt P16410 36-223)
T2 construct: whole, on cells
T2 sequence (looked up): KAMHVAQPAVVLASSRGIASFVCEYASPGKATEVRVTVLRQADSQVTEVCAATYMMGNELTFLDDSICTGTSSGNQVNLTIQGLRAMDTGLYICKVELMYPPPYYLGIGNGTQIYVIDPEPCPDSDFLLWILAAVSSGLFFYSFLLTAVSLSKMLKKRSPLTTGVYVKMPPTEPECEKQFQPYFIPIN


Legend:
[1] = target: T3, human CTLA4-mFc (human); test: ELISA blockage of biotinylated CD80-mFc binding to coated human CTLA4-mFc
T3 construct: Extracellular domain of human CTLA4 fused with mouse Fc; also called hCTLA4-mFc
Method: ELISA based ligand blockage analysis was conducted via blocking biotinylated human CD80-mFc from binding to human CTLA4-mFc. CTLA4-mFc antigen (CrownBio) was suspended in PBS (Hyclone, Cat No: SH30256.01B) buffer (2 μg/ml, 100 μl/well) and coated on the 96 well plate (Costar, Cat No: 9018) 4° C. overnight. Plates were washed 3 times using washing buffer: PBS+0.05% Tween 20 (Sigma, Cat No: P1379). 200 μl of blocking buffer (PBS+1% BSA (Roche, Cat No: 738328)) was added to each well, incubated at 37° C. for 1 hour, and washed 3 times. Various concentrations (suitable dilutions of hybridoma supernatant in PBS) of the anti-CTLA4 antibodies were added to the wells (100 μl/well) and incubated at 37° C. for 1 hour. Ligand was added (0.1 μg/ml CD80-mFc-biotin, 100 μl/well), incubated at 37° C. for 2 hours, and washed 3 times. […] The colorimetric signals were developed and read at 450 nm using an Auto Plate SpectraMax Plus (Supplier: Molecular Devices; Model: MNR0643; Software: SoftMax Pro v5.4).
After generation and purification of humanized 6F3-hIgG1 and 10B10-hIgG1 antibodies, the binding and specificity of the antibodies were determined using ELISA-based binding and CTLA4/CD80 blockage analyses, as well as FACS-based binding and CTLA4/CD80 blockage analyses. […]

[2] = target: T1, human CTLA4 (construct not stated); test: SPR (Biacore 3000), capture method as in Example 5, CTLA4 as analyte
Method: (§1) To further characterize the binding characteristics of the antibodies, the hybridoma antibodies were profiled using Biacore (Biacore 3000, GE) to elucidate binding kinetics and calculate equilibrium binding constants. This assay was performed by capture method, using the mouse antibody capture kit (BR-1008-38, GE). After diluting anti-mouse Fc mab to 25 μg/ml in pH 5.0 immobilization buffer, immobilization was conducted with the parameters shown in Table 9 at a flow rate of 5 μl/min. The kinetic runs were done by 1) injecting ligand for typical 0.5-1 min at flow rate of 10 μl/min.; 2) injecting analytes of choice for typical 3 min followed by dissociation in running buffer (1×PBS-P20) for typical 5-10 min at flow rate of 30 μl/min.; and 3) injecting regeneration solution 10 mM Glycine pH 1.7 for typical 1-2 min at flow rate of 10 μl/min.
The binding kinetics between CTLA4 and humanized CTLA4 antibodies were measured by Biacore3000 as described in Example 5. The dissociation constant, KD, was calculated from the determined rate constants by the relation KD=kd/ka.

[3] = target: T4, human CTLA4-hFc (human); test: ELISA, humanized antibody on coated human CTLA4
T4 construct: Extracellular domain of human CTLA4 fused with a human Fc tag; also called hCTLA4-hFc

[4] = target: T2, human CTLA4 on hCTLA4-293T cells; test: FACS on hCTLA4-293T cells, humanized antibody
Method: (§2) The cells were incubated with the indicated antibody (20 μg/ml with the dilution of 1/5) at 4° C. for 1 hour. Cells were washed three times with FACS buffer. A secondary antibody (PE Goat anti-mouse: 1:200; PE mouse anti-human: 1:10) was added to the cells at 100 μl/well, and incubated at 4° C. for 40 min. Cells were washed three times with FACS buffer and analyzed by FACS Array.
(§3) After generation and purification of humanized 6F3-hIgG1 and 10B10-hIgG1 antibodies, the binding and specificity of the antibodies were determined using ELISA-based binding and CTLA4/CD80 blockage analyses, as well as FACS-based binding and CTLA4/CD80 blockage analyses. The methods used were similar to those described above in EXAMPLE 4.

[5] = target: T2, human CTLA4 on hCTLA4-293T cells; test: FACS blockage of biotinylated human CD80 binding to hCTLA4-293T cells
Method: (§4) Various concentrations of the testing hybridoma antibodies were added to the cell suspension and incubated at 4° C. for 60 minutes in 96 well plates. Biotin-labeled CD80 protein was added into the wells and incubated at 4° C. for 60 minutes. […] Flow cytometric analyses were performed using a FACS Array.
as §3

[6] = target: T2, human CTLA4 on hCTLA4-293T cells; test: as above; remark: listed apart in the source
Method: as §4
(§5) The purified hybridoma antibodies were characterized further based on ELISA and FACS analyses. The methods applied were similar to those described above in Example 2 except that in these cases, purified antibodies were used to measure EC50 and IC50.

[7] = target: T4, human CTLA4-hFc; test: ELISA, purified murine antibody on coated human CTLA4-hFc
Method: ELISA binding analysis was conducted using human CTLA4-hFc. 96-well plates (Costar, Cat No: 9018) were coated with 100 μl of 2 μg/ml CTLA4-hFc (CrownBio) in coating buffer (PBS, Hyclone, Cat No: SH30256.01B) overnight at 4° C. The wells were aspirated and non-specific binding sites were blocked by adding 200 μl of blocking buffer with 1% (w/v) of bovine serum albumin (BSA, Roche, Cat No: 738328) and incubating for 1 hour at 37° C. After the plates are washed three times with wash buffer (PBS with 0.05% (v/v) TWEEN-20™ (Sigma, Cat No: P1379)), 100 μl/well of a suitable dilutions of hybridoma supernatant in blocking buffer were added and incubated at room temperature for 1 hour. The plates were washed and incubated with 100 μl/well of Goat anti-Mouse IgG (H+L) (Thermo, Cat No: 31432) in blocking buffer for 60 min. After the plates were washed, 100 μl/well of substrate solution TMB (eBioscience, Cat No: 00-4201-56) was added and the plates were incubated for 2 min at room temperature. 100 μl/well of stop solution (2N H₂SO₄) was added to stop the reaction. The colorimetric signals were developed and read at 450 nm using a Auto Plate SpectraMax Plus (Supplier: Molecular Devices; Model: MNR0643; Software: SoftMax Pro v5.4). Through this method, hybridoma cell lines that produce antibodies highly specifically binding to the human CTLA4 protein were repeatedly selected. […]

[8] = target: T3, human CTLA4-mFc; test: ELISA blockage of biotinylated CD80-mFc binding to coated human CTLA4-mFc; remark: listed apart in the source
Method: ELISA based ligand blockage analysis was conducted via blocking biotinylated human CD80-mFc from binding to human CTLA4-mFc. CTLA4-mFc antigen (CrownBio) was suspended in PBS (Hyclone, Cat No: SH30256.01B) buffer (2 μg/ml, 100 μl/well) and coated on the 96 well plate (Costar, Cat No: 9018) 4° C. overnight. Plates were washed 3 times using washing buffer: PBS+0.05% Tween 20 (Sigma, Cat No: P1379). 200 μl of blocking buffer (PBS+1% BSA (Roche, Cat No: 738328)) was added to each well, incubated at 37° C. for 1 hour, and washed 3 times. Various concentrations (suitable dilutions of hybridoma supernatant in PBS) of the anti-CTLA4 antibodies were added to the wells (100 μl/well) and incubated at 37° C. for 1 hour. Ligand was added (0.1 μg/ml CD80-mFc-biotin, 100 μl/well), incubated at 37° C. for 2 hours, and washed 3 times. Secondary antibody (Avidin HRP, eBioscience Cat No: E07418-1632, 1:500, 100 μl/well) was added, incubated at 37° C. for 0.5 hour, and washed 3 times. TMB (Sigma, Cat No: T0440, 100 μl/well) was added, and incubated for 3 min at room temperature. To stop the reaction, 2N H₂SO₄ (100 μl/well), was added. The colorimetric signals were developed and read at 450 nm using an Auto Plate SpectraMax Plus (Supplier: Molecular Devices; Model: MNR0643; Software: SoftMax Pro v5.4).
The purified hybridoma antibodies were characterized further based on ELISA and FACS analyses. […]

[9] = target: T1, human CTLA4 (construct not stated); test: SPR (Biacore 3000), antibody captured by anti-mouse Fc mAb, CTLA4 as analyte
Method: as §1

[10] = target: mouse CTLA4 (mouse, UniProt P09793 36-161, limits assumed); test: protein based ELISA and other assays, not named
[11] = target: T2, human CTLA4 on hCTLA4-293T cells; test: FACS on hCTLA4-293T cells, purified murine antibody
Method: as §2, §5

Binder | IC50 [1] [µg/mL] | Kd [2] [nM] | koff [2] [s⁻¹] | kon [2] [M⁻¹ s⁻¹] | EC50 [3] [µg/mL] | EC50 [4] [µg/mL] | IC50 [5] [µg/mL] | IC50 [6] [µg/mL] | EC50 [7] [µg/mL] | IC50 [8] [µg/mL] | Kd [9] [nM] | koff [9] [s⁻¹] | kon [9] [M⁻¹ s⁻¹] | binding result [10] | EC50 [11] [µg/mL]
6F3 humanized (antibody, human IgG1, kappa, V domains shown, Humanized IgG1, expressed in Freestyle 293 cells; also called h6F3-IgG1; humanized 6F3-hIgG1) VH: QVQLVQSGAEVKKPGSSVKVSCKASGYTFTDYEMHWVRQAPGQGLEWIGVIDPETGGITYNQKFKGRATLTADKSTSTAYMELSSLRSEDTAVYYCTRRGARATVYNYVMDYWGQGTLVTVSS VL: DIQMTQSPSSLSASVGDRVTITCRASENIHNYLAWYQQKPGKAPKLLVYNAKTLGDGVPSRFSGSGSGTDYTLTISSLQPEDFATYYCQHFWSTPWTFGGGTKVEIKR | 0.295 | 0.441 | 0.00013 | 295000 | 0.00201 | 2.33 | 0.435 | – | – | – | – | – | – | – | –
10B10 humanized (antibody, human IgG1, kappa, V domains shown, Humanized IgG1, expressed in Freestyle 293 cells; also called h10B10-IgG1; humanized 10B10-hIgG1) VH: QVQLQESGPGLVKPSQTLSLTCAVSGYSITSGYSWNWIRQPPGKGLEWMGYIRFDGNNNYNPFLKNRITISRDTSKNQFSLKLSSVTAADTAVYYCARNYGTWGAMDFWGQGTLVTVSS VL: DIQLTQSPSSLSASVGDRVTITCKTSQDINKYMAWYQQKPGKAPKLLIYYTSILQPGVPSRFSGSGSGTDYTFTISSLQPEDIATYYCQQYDNLNTFGGGTKVEIKR | 0.285 | 0.273 | 0.000113 | 414000 | 0.00293 | 5.28 | 0.0253 | – | – | – | – | – | – | – | –

Second part, the binder after the results:

IC50 [1] [µg/mL] | Kd [2] [nM] | koff [2] [s⁻¹] | kon [2] [M⁻¹ s⁻¹] | EC50 [3] [µg/mL] | EC50 [4] [µg/mL] | IC50 [5] [µg/mL] | IC50 [6] [µg/mL] | EC50 [7] [µg/mL] | IC50 [8] [µg/mL] | Kd [9] [nM] | koff [9] [s⁻¹] | kon [9] [M⁻¹ s⁻¹] | binding result [10] | EC50 [11] [µg/mL] | Binder
– | – | – | – | – | – | – | 0.511 | 0.0127 | 0.594 | 0.219 | 0.000152 | 693000 | no binding | 0.305 | 10B10 murine (antibody, V domains shown, Mouse monoclonal antibody purified from hybridoma supernatant on Protein G; also called murine antibody 10B10; anti-CTLA4 hybridoma antibody 10B10) VH: DVQLQESGPGLVTPSQSLSLTCSVTGYSITSGYSWNWIRQFPGNKLEWMGYIRFDGNNNYNPFLKNRISITRDTSENQFFLKLNSVTTEDTATYYCARNYGTWGAMDFWGQGTSVTVSS VL: DIVLTQSPSSLSASLGGKVTITCKTSQDINKYMAWYQHKPGKGPRLLIYYTSILQPGIPSRFSGSGSGTDYSFSINNLEPEDIATYYCQQYDNLNTFGGGTMLEIK
– | – | – | – | – | – | – | 0.526 | 0.025 | 0.526 | 0.409 | 0.000244 | 598000 | no binding | 1.18 | 6F3 murine (antibody, V domains shown, Mouse monoclonal antibody purified from hybridoma supernatant on Protein G; also called murine antibody 6F3; anti-CTLA4 hybridoma antibody 6F3) VH: QVKLQESGAELVRPGASVTLSCKASGYTFTDYEMHWMKQTPVHGLEWIGVIDPETGGITYNQKFKGKATLTADKSSSTAYMEFLSLTSEDSAVYYCTRRGARATVYNYVMDYWGQGTSVTVSS VL: DIVMTQTTASLSASVGETVTITCRASENIHNYLAWYQQKQGRSPQLLVYNAKTLGDGVPSRFSGSGSGTQYSLKINSLQPEDFGSYYCQHFWSTPWTFGGGTKLEIK
